Assay results taken from article PMC4041461, “Identification and characterization of RNA guanine-quadruplex binding proteins”.

Assays:
Δnucleolin = Δnucleolin (Homo sapiens, UniProt P19338 284-710, del1-283); test: SPR; SPR: 25 °C, 1:10 mixture of binding buffer (10 mM Tris-HCl pH 7.5, 150 mM KCl) and HBS-EP (10 mM HEPES pH 7.4, 150 mM NaCl, 3 mM EDTA, 0.005% P20), protein immobilized; pull-down: RNA on streptavidin beads blocked in 10 mM Tris-HCl pH 7.5, 100 mM KCl, 0.1 mM EDTA, 1 mM DTT, 0.01% Triton X-100, BSA, tRNA; extract 1 h at 30 °C, elution 400-2600 mM KCl; conditions: protein: recombinant, tags: N-terminal His-tag (pET28a), label: biotin
U2AF65 = U2AF65 (Homo sapiens, UniProt P26368 1-475); test: as above; conditions: protein: recombinant, tags: N-terminal His-tag (pET28a), label: biotin
EFHD2 = biological target: T1, EFHD2 (Homo sapiens, UniProt Q96C19 1-240); test: SPR; 100 nM RNA; SPR: 25 °C, 1:10 mixture of binding buffer (10 mM Tris-HCl pH 7.5, 150 mM KCl) and HBS-EP (10 mM HEPES pH 7.4, 150 mM NaCl, 3 mM EDTA, 0.005% P20), protein immobilized; pull-down: RNA on streptavidin beads blocked in 10 mM Tris-HCl pH 7.5, 100 mM KCl, 0.1 mM EDTA, 1 mM DTT, 0.01% Triton X-100, BSA, tRNA; extract 1 h at 30 °C, elution 400-2600 mM KCl; conditions: protein: recombinant; tags: N-terminal His-tag (pET28a); label: biotin; parallel G4, several variants possible
T1 sequence: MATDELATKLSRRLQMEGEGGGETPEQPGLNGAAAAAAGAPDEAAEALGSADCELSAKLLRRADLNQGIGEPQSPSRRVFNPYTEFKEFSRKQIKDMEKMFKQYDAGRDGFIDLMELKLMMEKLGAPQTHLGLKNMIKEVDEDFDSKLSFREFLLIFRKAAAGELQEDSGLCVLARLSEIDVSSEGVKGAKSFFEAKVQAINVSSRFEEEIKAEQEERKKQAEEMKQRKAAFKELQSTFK

SRSF1 = SRSF1 (Homo sapiens, UniProt Q07955 1-248); test: as above; conditions: protein: recombinant; tags: N-terminal His-tag (pET28a); label: biotin; parallel G4, several variants possible
[1] = parallel G4, several variants possible

Sequence of Δnucleolin (P19338 284-710, stated change not applied): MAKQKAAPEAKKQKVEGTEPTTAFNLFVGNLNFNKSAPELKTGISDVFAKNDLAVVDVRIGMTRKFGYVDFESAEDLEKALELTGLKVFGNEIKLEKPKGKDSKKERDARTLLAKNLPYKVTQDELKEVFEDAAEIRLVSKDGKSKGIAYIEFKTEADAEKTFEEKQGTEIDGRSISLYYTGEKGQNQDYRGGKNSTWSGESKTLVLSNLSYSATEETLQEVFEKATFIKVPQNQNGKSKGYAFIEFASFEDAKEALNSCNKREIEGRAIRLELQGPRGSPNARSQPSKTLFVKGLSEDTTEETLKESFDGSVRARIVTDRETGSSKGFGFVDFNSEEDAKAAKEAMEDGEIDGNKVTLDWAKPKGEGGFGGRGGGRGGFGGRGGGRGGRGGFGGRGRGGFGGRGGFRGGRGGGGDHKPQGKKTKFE
Sequence of U2AF65 (P26368 whole entry, one chain of several): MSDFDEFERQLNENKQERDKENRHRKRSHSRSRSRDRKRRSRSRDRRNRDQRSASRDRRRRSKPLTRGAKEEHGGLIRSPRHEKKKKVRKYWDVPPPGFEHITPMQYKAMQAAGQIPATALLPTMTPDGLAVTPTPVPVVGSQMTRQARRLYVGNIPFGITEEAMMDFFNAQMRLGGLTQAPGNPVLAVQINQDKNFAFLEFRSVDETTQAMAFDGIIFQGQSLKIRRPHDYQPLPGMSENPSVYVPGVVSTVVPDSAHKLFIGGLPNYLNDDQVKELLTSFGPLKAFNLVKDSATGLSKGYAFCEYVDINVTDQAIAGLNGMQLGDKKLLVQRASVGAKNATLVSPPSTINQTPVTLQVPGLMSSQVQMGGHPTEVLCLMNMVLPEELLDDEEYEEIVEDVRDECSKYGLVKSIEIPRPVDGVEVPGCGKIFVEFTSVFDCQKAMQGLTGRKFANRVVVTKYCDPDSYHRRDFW
Sequence of SRSF1 (Q07955 whole entry): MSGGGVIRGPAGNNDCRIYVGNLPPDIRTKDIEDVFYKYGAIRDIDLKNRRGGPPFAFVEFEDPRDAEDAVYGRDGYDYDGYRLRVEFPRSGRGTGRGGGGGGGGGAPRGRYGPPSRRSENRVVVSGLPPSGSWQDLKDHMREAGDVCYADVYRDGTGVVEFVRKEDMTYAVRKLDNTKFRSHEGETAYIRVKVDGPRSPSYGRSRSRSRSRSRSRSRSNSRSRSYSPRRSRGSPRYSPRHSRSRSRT

B1: MMP16 GQ (structured_RNA)
RNA: AACGAGGGAGGGAGGGAGAGGGAGAGA
modifications: 3' biotin
In the case of B1, the Kd (Δnucleolin; parallel G4 (CD, UV melting)) is reported as 2 nM and the Kd (U2AF65; parallel G4 (CD, UV melting)) is reported as 5 nM.

B2: ARPC2 GQ (structured_RNA)
RNA: AGCCGGGGGCUGGGCGGGGACCGGGCUUGU
modifications: 3' biotin
With B2 the Kd (Δnucleolin; [1]) was 0.6 nM, the Kd (U2AF65; [1]) was 1 nM and the binding result (EFHD2) was “binds”. B2: binds (SRSF1).

B3: ARPC2 mut (ssRNA)
RNA: AGCCGUAGACUGAGCGAAGACCGAGCUUGU
modifications: 3' biotin
B3 was tested, and the Kd (Δnucleolin; no G4) was 83 nM.

B4: MMP16 mut (ssRNA)
RNA: AACGAGAGAGAGAGAGAGAGAGAGAGA
modifications: 3' biotin
For B4, the Kd (Δnucleolin; no G4) was 0.6 nM.
